Data on 1 molecule can be found in patent publication US20190375795A1 (CGTX PEPTIDE DEVELOPMENT, published 2019).

For assay [1], the target named is T1, Kv1.5 (UniProt P22460 1-613).
T1 construct: whole, on cells
Nature of the assay: planar patch clamp (Port-A-Patch), channel expressed in cells. (In general: In patch-clamp work, channel activity is measured electrically.)

The target in assay [2] is human Kv1.3 (hKv1.3) channel (human, UniProt P22001 1-575). The experiment in a line: cell-based or functional assay.
Chain of human Kv1.3 (hKv1.3) channel (P22001 whole entry): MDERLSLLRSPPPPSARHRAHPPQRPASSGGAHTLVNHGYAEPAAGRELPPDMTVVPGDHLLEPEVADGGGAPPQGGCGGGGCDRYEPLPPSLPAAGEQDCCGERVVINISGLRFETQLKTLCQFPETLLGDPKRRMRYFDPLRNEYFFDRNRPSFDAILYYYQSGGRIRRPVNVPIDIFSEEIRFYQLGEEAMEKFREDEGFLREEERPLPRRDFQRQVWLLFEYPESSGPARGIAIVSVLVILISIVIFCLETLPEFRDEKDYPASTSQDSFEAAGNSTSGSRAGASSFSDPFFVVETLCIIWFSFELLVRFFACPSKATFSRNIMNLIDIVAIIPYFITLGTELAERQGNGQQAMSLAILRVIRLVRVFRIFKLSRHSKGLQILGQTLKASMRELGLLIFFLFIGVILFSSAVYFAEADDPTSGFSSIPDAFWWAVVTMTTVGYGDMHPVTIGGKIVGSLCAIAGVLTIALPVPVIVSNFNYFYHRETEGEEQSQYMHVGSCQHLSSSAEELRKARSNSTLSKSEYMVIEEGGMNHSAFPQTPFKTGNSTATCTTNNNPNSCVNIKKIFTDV

T1 sequence (P22460 whole entry): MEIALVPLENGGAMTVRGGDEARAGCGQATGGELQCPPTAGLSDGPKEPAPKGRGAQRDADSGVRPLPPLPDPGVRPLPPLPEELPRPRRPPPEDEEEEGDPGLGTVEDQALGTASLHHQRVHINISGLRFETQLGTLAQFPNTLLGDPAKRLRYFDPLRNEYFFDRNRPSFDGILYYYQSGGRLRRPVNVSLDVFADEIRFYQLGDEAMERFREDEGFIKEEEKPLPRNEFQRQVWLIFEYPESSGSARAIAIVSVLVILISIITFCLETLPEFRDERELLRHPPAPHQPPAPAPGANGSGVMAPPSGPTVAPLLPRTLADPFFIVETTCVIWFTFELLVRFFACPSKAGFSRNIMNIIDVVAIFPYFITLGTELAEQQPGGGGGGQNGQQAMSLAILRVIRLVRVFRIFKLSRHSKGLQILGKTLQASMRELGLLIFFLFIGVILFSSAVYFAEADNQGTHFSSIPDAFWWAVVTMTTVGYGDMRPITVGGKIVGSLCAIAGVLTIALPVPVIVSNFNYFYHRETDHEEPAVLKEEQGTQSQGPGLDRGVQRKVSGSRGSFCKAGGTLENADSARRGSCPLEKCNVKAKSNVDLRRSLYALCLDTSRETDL

B1: HsTx 1 (peptide)
peptide: ASCRTPKDCADPCRKETGCPYGKCMNRKCKCNRC
notes: also called toxin HsTx 1
For B1, the binding result in assay [1] was “no binding”. Further, the “selectivity for Kv1.3 vs. Kv1.1 (patch clamp IC50s)” value in assay [2] was roughly 450 fold.
